Results from PMC8171346, “Anomalous structural dynamics of minimally frustrated residues in cardiac troponin C triggers hypertrophic cardiomyopathy†” (Chemical Science, 2021).

Tests used:
[1] = biological target: human cardiac troponin C, wild type (human, UniProt P63316 1-161); test: NMR titration; 1H-15N HSQC spectra at 37 °C of WT or C84Y cTnC in the Ca2+-bound (primed) state, without peptide and with increasing concentrations of peptide (15, 40, 70, 120, 150 and 200 μM); normalized 1H chemical shifts against peptide concentration; details: both partners purified
[2] = biological target: human cardiac troponin C C84Y (human, UniProt P63316 1-161, C84Y); test: as above; details: both partners purified

B1: inhibitory cardiac TnI peptide iTnI128-147 (peptide)
peptide: Ac-LTQKIFDLRGKFKRPTLRRV-NH2
notes: source: synthetic peptide (Genscript, purity higher than 95%)
Kd [1]: 59 ± 3.6 µM | Kd [2]: 66 ± 5.5 µM
